Numbering of substitutions follows the chain as printed.
T1: human IL6R (human, UniProt P08887 20-358, limits assumed)
T1 construct: Antigen of the Biacore experiments
T1 sequence (looked up): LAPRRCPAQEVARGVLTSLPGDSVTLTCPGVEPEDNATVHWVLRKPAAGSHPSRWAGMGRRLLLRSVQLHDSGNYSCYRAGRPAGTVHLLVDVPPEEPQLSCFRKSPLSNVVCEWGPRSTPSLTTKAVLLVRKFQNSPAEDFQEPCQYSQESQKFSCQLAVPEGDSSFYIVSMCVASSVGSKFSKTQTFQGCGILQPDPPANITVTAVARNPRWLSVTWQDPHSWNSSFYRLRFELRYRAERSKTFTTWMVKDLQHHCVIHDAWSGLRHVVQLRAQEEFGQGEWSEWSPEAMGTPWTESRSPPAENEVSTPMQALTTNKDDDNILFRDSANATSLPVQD

B1: IL6R65PMP10A11 (VHH)
VHH: EVQLVESGGGLVQPGGSLRLSCAASGSIFKVNAMGWYRQAPGKGRELVAGIISGGSTNYADSVKGRFTISRDNAKNTLYLQMNSLRPEDTAVYYCAFIASNSEYDLGRRFWGQGTLVTVSS
notes: CDR3 library clone
B2: IL6R65PMP11C7 (VHH)
VHH: EVQLVESGGGLVQPGGSLRLSCAASGTIFKVNIMAWYRQAPGKGRELVAAIITSGTTTYADSVKGRFTISRDNAKNTLYLQMNSLRPEDTAVYYCAFVTTNSDYDLGRDYWGQGTLVTVSS
B3: IL6R65PMP11E4 (VHH)
VHH: B2 VHH with S21T, I33V, S54G, T56S, T58S
B4: IL6R65PMP11H10 (VHH)
VHH: B2 VHH with S21T, I28T, I33V, I51V, T53N, S54G, T58S
B5: IL6R65PMP13F5 (VHH)
VHH: B2 VHH with I28T, K30R, V31I, I33V, A50G, S54N, T56S, T58S
B6: IL6R65PMP11F12 (VHH)
VHH: B2 VHH with I28T, K30R, I33V, T53S, S54G, T56S
B7: IL6R65PMP16H6 (VHH)
VHH: EVQLVESGGGLVQPGGSLRLSCAASGSVFRINAMAWYRQAPGKGRELVAGFVTGGSSNYADSVKGRFTISRDNAKNTLYLQMNSLRPEDTAVYYCAFVTTNSDYDLGRDYWGQGTLVTVSS
B8: IL6R65PMP19A4 (VHH)
VHH: B1 VHH with A99T, S100T, N101D, S102T, E103N, R108K, F110S
notes: CDR3 library clone
B9: IL6R65PMP11F3 (VHH)
VHH: B2 VHH with K30R, V31I, I33V, T53S, S54G, T56S
B10: IL6R65PMP12E1 (VHH)
VHH: B7 VHH with S25N, F29Y, R30K, I31V, F51I, S56T
B11: IL6R65PMP11G10 (VHH)
VHH: B2 VHH with T27S, I28T, K30R, V31I, I33V, A50G, S54N
B12: IL6R65PMP11G7 (VHH)
VHH: B2 VHH with V31L, I33V, S54G
B13: IL6R65PMP18B1 (VHH)
VHH: B1 VHH with A99T, S100A, N101D, S102T, E103D, R108K, F110Y
notes: CDR3 library clone
B14: IL6R65PMP11E9 (VHH)
VHH: B2 VHH with I28T, V31I, I33V, S54G
B15: IL6R65PMP11F1 (VHH)
VHH: B7 VHH with S17T, V28T, R30K, A33V, F51V, V52I, G54N, S57T, N58T
B16: IL6R65PMP11H4 (VHH)
VHH: B2 VHH with T27S, I28T, K30R, V31L, I33V, S54N
B17: IL6R65PMP13B3 (VHH)
VHH: B2 VHH with R19H, V31I, I33V, S54D, T56S
B18: IL6R65PMP11E11 (VHH)
VHH: B2 VHH with I28T, V31I, I33V, E46K, T53N, S54N, T56N
B19: IL6R65PMP13A11 (VHH)
VHH: B7 VHH with S27T, R30K, I31V, F51V, V52I, T53S, G54A, S57A
B20: IL6R65PMP11F10 (VHH)
VHH: B2 VHH with I28T, V31L, I51V, T53N, S54G
B21: IL6R65PMP11D11 (VHH)
VHH: B7 VHH with V28T, R30K, A33I, F51V, V52I, S56N, S57T
B22: IL6R65PMP18E11 (VHH)
VHH: B7 VHH with S27T, V28T, A33V, F51I, V52I, G54N, S57T, N58S
B23: IL6R65PMP11D12 (VHH)
VHH: B2 VHH with V31I, T53N, T56S, T58S
B24: IL6R65PMP11G11 (VHH)
VHH: B2 VHH with I28T, V31I, I33V, T58S
B25: IL6R65PMP11H2 (VHH)
VHH: B2 VHH with T27S, V31I, I33V, T53N, S54G, T58S
B26: IL6R65PMP13A4 (VHH)
VHH: B2 VHH with I28T, K30R, V31L, I33V
B27: IL6R65PMP13D2 (VHH)
VHH: B2 VHH with I28T, I33V, T53N, S54D, T56S
B28: IL6R65PMP18G12 (VHH)
VHH: B2 VHH with T27S, V31I, I33V, T53N, T58S
B29: IL6R65PMP18G8 (VHH)
VHH: B2 VHH with I28T, V31I, I33V, A50G, S54G
B30: IL6R65PMP11E5 (VHH)
VHH: B2 VHH with T27S, I28T, K30R, V31I, A50G, I51V, T56N
B31: IL6R65PMP11A12 (VHH)
VHH: B2 VHH with K30R, I33V, A50G, S54N, T56S, T58S
B32: IL6R65PMP12C7 (VHH)
VHH: B7 VHH with F29Y, A35G, F51L, V52I, T53S, G54A, S57T
B33: IL6R65PMP18G11 (VHH)
VHH: B2 VHH with T27S, V31I, I33V, T53N, S54G, T58S
B34: IL6R65PMP11B4 (VHH)
VHH: B2 VHH with T27S, V31I, I33V, T53N, S54G, T58S
B35: IL6R65PMP11D4 (VHH)
VHH: B2 VHH with I28T, V31I, A50G, I51V, T53N, T58N
B36: IL6R65PMP13H4 (VHH)
VHH: B7 VHH with V28A, R30K, I31V, A33V, F51V, V52I, G54D, S57T
B37: IL6R65PMP13B2 (VHH)
VHH: B2 VHH with I28T, S54N, T56S
B38: IL6R65PMP11D3 (VHH)
VHH: B2 VHH with T27S, V31L, I33V, A50G, I51V, S54G, T56N, T58S
B39: IL6R65PMP13G5 (VHH)
VHH: B2 VHH with V31I, T53N, T56S, T58S
B40: IL6R65PMP19H2 (VHH)
VHH: B1 VHH with A99T, S100A, N101D, S102T, E103D, R108K, F110Y
notes: CDR3 library clone
B41: IL6R65PMP11E2 (VHH)
VHH: B2 VHH with I28T, S54G, T56S, T58S
B42: IL6R65PMP12C8 (VHH)
VHH: B7 VHH with S27T, R30K, F51L, T53S, G54A, S56T, S57A
B43: IL6R65PMP11C4 (VHH)
VHH: B2 VHH with V31I, I33V, A50G, S54N, T56S
B44: IL6R65PMP13F3 (VHH)
VHH: B2 VHH with I28T, V31I, I33V, S54G
B45: IL6R65PMP13D3 (VHH)
VHH: B2 VHH with S25N, I28T, I33V, A50G, I51V, S54G, T58N
B46: IL6R65PMP18G7 (VHH)
VHH: B2 VHH with I28T, I33V, A50G, S54G, T56S
B47: IL6R65PMP13F10 (VHH)
VHH: B7 VHH with R30K, A35G, F51L, V52I, T53S, G54A, S57T
B48: IL6R65PMP19H7 (VHH)
VHH: B1 VHH with A99T, S100A, N101D, S102T, R108K
notes: CDR3 library clone
B49: IL6R65PMP11D6 (VHH)
VHH: B2 VHH with I28T, V31I, I33V, T53S, S54G, T56S, T58P
B50: IL6R65PMP13A2 (VHH)
VHH: B2 VHH with K30R, I33V, S54D

target: T1, human IL6R; assay: SPR (Biacore), periplasmic extract
Method: Selection outputs were analyzed by picking individual colonies and growing them overnight in 1 ml 2×YT (Yeast Tryptone) medium+100 ug/ml Carbenicillin at 37 C. Nanobody containing periplasmic extracts were prepared, diluted 1/10 in PBS and subsequently tested for antigen binding in ELISA. Clones with the highest ELISA signals were sequenced and analyzed on Biacore. […] The off-rate of the best clone from the CDR3 library was 7×10e-4 s-1.

Binder | koff [s⁻¹]
B1 | 0.001
B2 | 0.00085
B3 | 0.00023
B4 | 0.00043
B5 | 0.00037
B6 | 0.00067
B7 | 0.00032
B8 | 0.00089
B9 | 0.00048
B10 | 0.00026
B11 | 0.00021
B12 | 0.00036
B13 | 0.00072
B14 | 0.00035
B15 | 0.00037
B16 | 0.0008
B17 | 0.00076
B18 | 0.00049
B19 | 0.00083
B20 | 0.0013
B21 | 0.00039
B22 | 0.00027
B23 | 0.00058
B24 | 0.0005
B25 | 0.0003

Binder | koff [s⁻¹]
B26 | 0.00072
B27 | 0.0011
B28 | 0.00034
B29 | 0.00023
B30 | 0.00048
B31 | 0.00012
B32 | 0.00091
B33 | 0.00033
B34 | 0.00028
B35 | 0.001
B36 | 0.00052
B37 | 0.0014
B38 | 0.00031
B39 | 0.00069
B40 | 0.00074
B41 | 0.00068
B42 | 0.00066
B43 | 0.00031
B44 | 0.00046
B45 | 0.00048
B46 | 0.0003
B47 | 0.0011
B48 | 0.0011
B49 | 0.00068
B50 | 0.00061
